The target in experiment [1] is T1, MC4R (Homo sapiens, UniProt P32245). In words: cell competition binding against biotinylated alpha-MSH.
Experiment [2] concerns the target T1, MC4R. The experiment is described as follows: cell saturation binding.

By Ki is commonly meant the equilibrium dissociation constant of an inhibitor or competing ligand from its target. Broadly, the Kd is the constant that tells how readily two partners part at equilibrium.

T1 sequence (P32245 whole entry): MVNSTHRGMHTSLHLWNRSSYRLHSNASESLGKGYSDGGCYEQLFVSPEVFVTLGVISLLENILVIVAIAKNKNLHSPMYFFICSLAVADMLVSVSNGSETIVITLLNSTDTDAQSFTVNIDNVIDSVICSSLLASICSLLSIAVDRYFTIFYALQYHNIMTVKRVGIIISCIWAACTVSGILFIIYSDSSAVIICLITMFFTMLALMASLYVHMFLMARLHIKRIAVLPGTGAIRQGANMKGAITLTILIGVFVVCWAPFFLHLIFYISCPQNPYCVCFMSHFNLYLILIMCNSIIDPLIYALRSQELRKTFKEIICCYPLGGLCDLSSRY

B1: LCN2 (protein)
chain: QDSTQNLIPAPSLLTVPLQPDFRSDQFRGRWYVVGLAGNAVQKKTEGSFTMYSTIYELQENNSYNVTSILVRDQDQGCRYWIRTFVPSSRAGQFTLGNMHRYPQVQSYNVQVATTDYNQFAMVFFRKTSENKQYFKITLYGRTKELSPELKERFTRFAKSLGLKDDNIIFSVPTDQCIDN
Take B1: the Ki in experiment [1] is 46.3 nM.

B2: LCN2 (protein)
chain: B1 chain
modifications: biotinylated LCN2
As for B2, the Kd in experiment [2] was 51.4 nM.

These data come from paper PMC5975642 (2018).
